Measurements from patent publication US20250197488A1 (MABWELL SHANGHAI BIOSCIENCE, published 2025).
Where a chain is given by its changes, count along the chain named.

T1: IL-11 (Cat. 12225-HNCE, Sino Biological Inc.) (UniProt P20809 22-199, limits assumed)
T1 sequence (looked up): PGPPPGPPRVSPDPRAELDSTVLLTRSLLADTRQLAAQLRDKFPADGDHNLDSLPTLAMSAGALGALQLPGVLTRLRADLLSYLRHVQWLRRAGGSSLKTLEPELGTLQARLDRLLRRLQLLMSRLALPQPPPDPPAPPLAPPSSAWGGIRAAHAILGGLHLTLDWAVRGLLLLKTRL

T2: human IL-11 (AAH12506.1, Pro22-Leu199) (human, UniProt P20809 22-199)
T2 construct: The range Pro22-Leu199 counts on AAH12506.1; The Octet runs say only 'human IL-11'; also called hIL-11
T2 chain: T1 sequence (looked up) with H154L

B1: hz18A10-VHm19 + hz18A10-VLm19 (antibody, human IgG1, kappa, V domains shown)
VH: EVQLVQSGAEVKKPGASVKVSCKASGYTFTHYNMDWVRQAPGQGLEWMGTIYPGNADTSYNQKFKGRVTMTRDTSTSTVYMELSSLRSEDTAVYYCARGDLYALDYWGQGTLVTVSS
VL: DIQMTQSPSSLSASVGDRVTITCKASQSVYRDVAWYQQKPGKAPKLLIYSASNRYTGVPSRFSGSGSGTDFTFTISSLQPEDIATYYCQHDYSSPYTFGQGTKLEIKR
notes: named hz18A10m19; also called hz18A10m19
B2: hz18A10-VH + hz18A10-VLm9 (antibody, V domains shown)
VH: B1 VH with H31T, A56G
VL: DIQMTQSPSSLSASVGDRVTITCKASQSVYSDVAWYQQKPGKAPKLLIYSASNRYTGVPSRFSGSGSGTDFTFTISSLQPEDIATYYCQHDYSSPYTFGQGTKLEIK
notes: Constant regions not restated for this antibody
B3: hz18A10-VH + hz18A10-VLm3 (antibody, V domains shown)
VH: B1 VH with H31T, A56G
VL: B2 VL with Q27H, Y30S, S31N
notes: as for B2
B4: hz18A10-VHm1 + hz18A10-VLm11 (antibody, V domains shown)
VH: B1 VH with H31T, A56G, Y102H, A103F
VL: B2 VL with Y30S, S31N, S50R
notes: as for B2
B5: hz18A10-VHm2 + hz18A10-VL (antibody, V domains shown)
VH: B1 VH with H31T, A56G, Y102H, A103Y
VL: B2 VL with Y30S, S31N
notes: as for B2
B6: hz18A10-VHm1 + hz18A10-VLm14 (antibody, V domains shown)
VH: B1 VH with H31T, A56G, Y102H, A103F
VL: B2 VL with Y30S, S31N, S50R, N53R
notes: as for B2
B7: hz18A10-VH + hz18A10-VLm11 (antibody, V domains shown)
VH: B1 VH with H31T, A56G
VL: B2 VL with Y30S, S31N, S50R
notes: as for B2
B8: hz18A10-VH + hz18A10-VLm18 (antibody, V domains shown)
VH: B1 VH with H31T, A56G
VL: B2 VL with S31R, S50R, N53S
notes: as for B2
B9: hz18A10-VHm3 + hz18A10-VLm19 (antibody, V domains shown)
VH: B1 VH with H31T, N33D, A56G
VL: B2 VL with S31R
notes: as for B2
B10: hz18A10-VHm1 + hz18A10-VLm7 (antibody, V domains shown)
VH: B1 VH with H31T, A56G, Y102H, A103F
VL: B2 VL with Y30F, S31R
notes: as for B2
B11: hz18A10-VH + hz18A10-VLm8 (antibody, V domains shown)
VH: B1 VH with H31T, A56G
VL: B2 VL with S31H
notes: as for B2
B12: hz18A10-VH + hz18A10-VLm4 (antibody, V domains shown)
VH: B1 VH with H31T, A56G
VL: B2 VL with S28F, Y30S, S31N
notes: as for B2
B13: hz18A10-VHm1 + hz18A10-VLm9 (antibody, V domains shown)
VH: B1 VH with H31T, A56G, Y102H, A103F
VL: B2 VL
notes: as for B2
B14: hz18A10-VH + hz18A10-VLm12 (antibody, V domains shown)
VH: B1 VH with H31T, A56G
VL: B2 VL with Y30S, S31N, N53S
notes: as for B2
B15: hz18A10-VH + hz18A10-VLm16 (antibody, V domains shown)
VH: B1 VH with H31T, A56G
VL: B2 VL with Y30S, S31N, S50R, N53R, T56P
notes: as for B2
B16: hz18A10-VH + hz18A10-VLm10 (antibody, V domains shown)
VH: B1 VH with H31T, A56G
VL: B2 VL with Y30S, S31N, V33L
notes: as for B2
B17: hz18A10-VH + hz18A10-VLm6 (antibody, V domains shown)
VH: B1 VH with H31T, A56G
VL: B2 VL with Y30F, S31H
notes: as for B2
B18: hz18A10-VH + hz18A10-VLm17 (antibody, V domains shown)
VH: B1 VH with H31T, A56G
VL: B2 VL with S31R, S50R
notes: as for B2
B19: hz18A10-VHm2 + hz18A10-VLm9 (antibody, V domains shown)
VH: B1 VH with H31T, A56G, Y102H, A103Y
VL: B2 VL
notes: as for B2
B20: hz18A10-VHm3 + hz18A10-VLm9 (antibody, V domains shown)
VH: B1 VH with H31T, N33D, A56G
VL: B2 VL
notes: as for B2
B21: hz18A10-VHm2 + hz18A10-VLm11 (antibody, V domains shown)
VH: B1 VH with H31T, A56G, Y102H, A103Y
VL: B2 VL with Y30S, S31N, S50R
notes: as for B2
B22: hz18A10-VH + hz18A10-VLm5 (antibody, V domains shown)
VH: B1 VH with H31T, A56G
VL: B2 VL with Y30S, S31N, V33I
notes: as for B2
B23: hz18A10-VHm4 + hz18A10-VLm18 (antibody, V domains shown)
VH: B1 VH with H31T, M34I, A56G
VL: B2 VL with S31R, S50R, N53S
notes: as for B2
B24: hz18A10-VHm1 + hz18A10-VL (antibody, V domains shown)
VH: B1 VH with H31T, A56G, Y102H, A103F
VL: B2 VL with Y30S, S31N
notes: as for B2
B25: hz18A10-VH + hz18A10-VLm2 (antibody, V domains shown)
VH: B1 VH with H31T, A56G
VL: B2 VL with Q27Y, Y30S, S31N
notes: as for B2
B26: hz18A10-VH + hz18A10-VLm13 (antibody, V domains shown)
VH: B1 VH with H31T, A56G
VL: B2 VL with Y30S, S31N, N53R
notes: as for B2
B27: hz18A10-VHm1 + hz18A10-VLm15 (antibody, V domains shown)
VH: B1 VH with H31T, A56G, Y102H, A103F
VL: B2 VL with Y30S, S31N, S50R, N53S
notes: as for B2
B28: hz18A10-VHm4 + hz18A10-VLm9 (antibody, V domains shown)
VH: B1 VH with H31T, M34I, A56G
VL: B2 VL
notes: as for B2
B29: hz18A10-VH + hz18A10-VLm1 (antibody, V domains shown)
VH: B1 VH with H31T, A56G
VL: B2 VL with Q27K, Y30S, S31N
notes: as for B2

Molecular target: T1, IL-11 (Cat. 12225-HNCE, Sino Biological …)
Assay: cell-based or functional assay

Row | Blocking activity (IC50), STAT3-luc reporter | Binder
1 | 0.13 µg/mL | B1
2 | 1.25 µg/mL | B2
3 | 15.2 µg/mL | B3
4 | 7.4 µg/mL | B4
5 | 11.6 µg/mL | B5
6 | 9.68 µg/mL | B6
7 | 4.07 µg/mL | B7
8 | 4.38 µg/mL | B8
9 | 0.262 µg/mL | B9
10 | 13.1 µg/mL | B10
11 | 3.12 µg/mL | B11
12 | 16.4 µg/mL | B12
13 | 11.1 µg/mL | B13
14 | 11.6 µg/mL | B14
15 | 9.89 µg/mL | B15
16 | 12.7 µg/mL | B16
17 | 2.6 µg/mL | B17
18 | 3.47 µg/mL | B18
19 | 13.9 µg/mL | B19
20 | 0.248 µg/mL | B20
21 | 9.46 µg/mL | B21
22 | 18.1 µg/mL | B22
23 | 1.94 µg/mL | B23
24 | 10.9 µg/mL | B24
25 | 17.4 µg/mL | B25
26 | 14.2 µg/mL | B26
27 | 1.88 µg/mL | B27
28 | 2.23 µg/mL | B28
29 | 19.3 µg/mL | B29

Molecular target: T2, human IL-11 (AAH12506.1, Pro22-Leu199)
Assay: BLI (Octet), antibody captured, human IL-11 in solution
Summary of the method: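 Kd, kon and koff were derived by fitting blank-subtracted bio-layer interferometry curves to a 1:1 Langmuir binding model. On a Fortebio Octet QKe System, antibodies diluted in HBS-EP+ buffer were captured on AMC or AHC biosensors and exposed to 300 nM human IL-11 for 300 seconds of association and 300 seconds of dissociation.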

Row | Kd | koff | kon | Binder
30 | 0.101 nM | 0.0001 s⁻¹ | 993000 M⁻¹ s⁻¹ | B1
31 | 0.54 nM | 0.000463 s⁻¹ | 859000 M⁻¹ s⁻¹ | B2
32 | 3.94 nM | 0.00277 s⁻¹ | 704000 M⁻¹ s⁻¹ | B3
33 | 0.825 nM | 0.000287 s⁻¹ | 348000 M⁻¹ s⁻¹ | B4
34 | 2.29 nM | 0.00158 s⁻¹ | 692000 M⁻¹ s⁻¹ | B5
35 | 1.03 nM | 0.000341 s⁻¹ | 330000 M⁻¹ s⁻¹ | B6
36 | 1.8 nM | 0.00134 s⁻¹ | 747000 M⁻¹ s⁻¹ | B7
37 | 0.419 nM | 0.0003 s⁻¹ | 716000 M⁻¹ s⁻¹ | B8
38 | 0.683 nM | 0.000652 s⁻¹ | 954000 M⁻¹ s⁻¹ | B9
39 | 2.4 nM | 0.0013 s⁻¹ | 544000 M⁻¹ s⁻¹ | B10
40 | 0.803 nM | 0.000746 s⁻¹ | 929000 M⁻¹ s⁻¹ | B11
41 | 3.12 nM | 0.00237 s⁻¹ | 760000 M⁻¹ s⁻¹ | B12
42 | 2.01 nM | 0.000963 s⁻¹ | 479000 M⁻¹ s⁻¹ | B13
43 | 3.54 nM | 0.00265 s⁻¹ | 750000 M⁻¹ s⁻¹ | B14
44 | 1.97 nM | 0.000938 s⁻¹ | 699000 M⁻¹ s⁻¹ | B15
45 | 4.06 nM | 0.00295 s⁻¹ | 727000 M⁻¹ s⁻¹ | B16
46 | 0.877 nM | 0.000794 s⁻¹ | 905000 M⁻¹ s⁻¹ | B17
47 | 0.45 nM | 0.000326 s⁻¹ | 725000 M⁻¹ s⁻¹ | B18
48 | 2.33 nM | 0.000941 s⁻¹ | 404000 M⁻¹ s⁻¹ | B19
49 | 0.0959 nM | 9.7e-05 s⁻¹ | 1.01e+06 M⁻¹ s⁻¹ | B20
50 | 1.01 nM | 0.000317 s⁻¹ | 314000 M⁻¹ s⁻¹ | B21
51 | 4.09 nM | 0.00281 s⁻¹ | 688000 M⁻¹ s⁻¹ | B22
52 | 0.322 nM | 0.000266 s⁻¹ | 826000 M⁻¹ s⁻¹ | B23
53 | 2.17 nM | 0.00139 s⁻¹ | 640000 M⁻¹ s⁻¹ | B24
54 | 2.3 nM | 0.00185 s⁻¹ | 806000 M⁻¹ s⁻¹ | B25
55 | 3.99 nM | 0.00268 s⁻¹ | 673000 M⁻¹ s⁻¹ | B26
56 | 0.585 nM | 0.000265 s⁻¹ | 453000 M⁻¹ s⁻¹ | B27
57 | 0.488 nM | 0.000496 s⁻¹ | 1.02e+06 M⁻¹ s⁻¹ | B28
58 | 4.61 nM | 0.00331 s⁻¹ | 718000 M⁻¹ s⁻¹ | B29
